Test results reported in patent US20040009939A1, “Methods of enhancing immune induction involving MDA-7” (Board of Regent, The University of Texas System, priority 2002, published 2004).
Entries after “also recorded” stand apart in the source; their conditions may differ.

What was measured:
HUVEC = assay: IP-10 and IFN-γ production by ELISA; type: cell-based, human; settings: sMDA-7 treated HUVEC supernatant
Protocol: HUVEC was seeded in six-well plates (1×10^5/well) and treated with sMDA-7 (10 ng/ml). Cell culture supernatant was collected at 6 h, 24 h, and 48 h after treatment, centrifuged at 1200 rpm, and analyzed for IP-10 and IFN-γ protein production using commercially available ELISA kits. Assays were performed as recommended by the manufacturer (R&D Systems, Minneapolis, Minn.). Cells treated with recombinant IFN-γ served as positive controls for IP-10 while cells treated with Ad-mda7 (3000 vp/cell) served as positive control for IFN-γ. Untreated cells served as negative controls in these experiments. Samples were analyzed in quadruplicate and data represented as the average value for each concentration of sMDA-7 tested.

HUVEC and HMVEC cells = assay: Endothelial cell differentiation (tube formation) assay; type: cell-based, human
Protocol: Endothelial cell differentiation (tube formation) assays were done using an in vitro angiogenesis assay kit (Chemicon, Temecula, Calif.). Briefly, HUVEC and HMVEC cells were grown to 80% confluency, collected, resuspended in growth medium and plated at a concentration of 2×10^4 cells/well in a 96-well plate coated with matrigel (Chemicon, Temecula, Calif.). To the wells, varying concentrations of MDA-7 protein were added and incubated for 24 h at 37° C. Wells that were not treated with MDA-7 protein served as a negative control. The ability of sMDA-7 to inhibit tube formation was determined and quantitated by counting the number of tubes under bright field microscopy. All samples were tested in duplicate. For comparative studies using MDA-7 and endostatin (Calbiochem), cells were plated as described above and exposed to varying concentration of the proteins. […] All other experimental procedures were the same as described above.

tumor cells = assay: Tumor cell death by secreted MDA-7 supernatant and bystander mixing; type: cell-based, human; settings: supernatant from 293 cells applied to tumor cell cultures
Protocol: This hypothesis was further tested by adding secreted MDA-7 to tumor cells and monitoring cell death. […] When culture supernatants were treated to minimize Ad-mda7 contamination, negligible cell death was induced by MDA-7 containing supernatants. When supernatant from 293 cells was applied to tumor cell cultures, only low levels of cell death were seen (approximately 10-15% above background levels) confirming that the secreted MDA-7, at least at the concentrations released by these cells, was not sufficient to elicit substantial cell death in tumor cells.
In that study, H460 cells were transduced with Ad-mda7 and immunostained with anti-MDA-7 antibody in conjunction with Annexin V staining. By confocal analysis, it was observed that some cells were Annexin V positive but were negative for MDA-7 expression. The frequency of Annexin V positive/MDA-7 negative cells was low and […] in multiple cells lines. Thus, to further evaluate the contribution of secreted MDA-7 in inducing apoptosis in neighboring cells, a series of bystander experiments were performed. Ad-mda7 transduced cells were mixed with native cells that had been previously labled with Ad-GFP and the cultures were scored for apoptosis in the GFP positive cells.

[1] = test system: bFGF-induced angiogenesis; assay: In vivo angiogenesis Matrigel assay; design: species or system athymic nude mice
Protocol: To determine the anti-angiogenic activity of sMDA-7, an in vivo angiogenesis assay was performed. Briefly, sMDA-7 and bFGF were mixed with 500 μl of matrigel (Beckton and Dickenson) on ice and injected subcutaneously into athymic nude mice. Animals receiving matrigel containing only bFGF (60 ng) served as a positive control while animals receiving matrigel containing no growth factor served as a negative control. Each group consisted of 5 animals. Experiments were terminated on day 10 and the matrigel was harvested, photographed and subjected to hemoglobin analysis as described previously (Caudel et al., 2002).

Serum sMDA-7 by ELISA = type: in vivo, nude mice; settings: animals implanted with 293 cells producing MDA-7
Source text: Mice were inoculated subcutaneously with A549 tumor cells in the lower right flank as described in Example 19. When the tumors had reached a size of 50 mm^3, 293 cells producing sMDA-7 (293-mda-7) or parental 293 cells (control) were encapsulated in matrigel and implanted subcutaneously at a site distant (upper right flank) from the tumor and the tumor growth was monitored. […] In comparison to the control, the growth of the tumors was suppressed by 50% after implantation of the encapsulated 293 cells producing MDA-7 protein. To confirm that the inhibitory effect was due to sMDA-7, serum samples from animals were tested for MDA-7 protein by Western blot analysis and ELISA. […] However, faint bands were also observed in the control that may be due to some cross-reactivity with serum proteins. The serum levels of sMDA-7 detected by ELISA was approximately 50 ng/ml.

STAT-3 = assay: pSTAT-3 Western blot and immunofluorescence; type: cell-based, human
Protocol: To determine the regulation of pSTAT-3 expression following the addition of sMDA-7, Western blot analysis was performed as described previously (Wang et al., 2002). Briefly, cells were harvested by trypsinization and resuspended in lysis buffer (62.5 mM Tris-HCl, 2% SDS, 10% glycerol, 4 M urea). Protein samples (50 μg) were each diluted into a 20 μl solution of lysis buffer and 5% 2-mercaptoethanol (Bio-Rad Laboratories, Hercules, Calif.) and heated in a water bath at 95° C. for 5 min. Protein extracts were then separated by 10% SDS-PAGE in a vertical-slab gel electrophoresis cell (Bio-Rad). The separated proteins were transferred from gel to nitrocellulose membrane (Hybond-ECL; Amersham Pharmacia Biotech, Buckinghamshire, England) and then blocked in a blocking solution (5% dry milk and 0.3% Tween 20 in PBS) for 1 hour. Membranes were incubated with the primary antibodies against pSTAT-3 (1:1000), and β-actin (1:10000). The membranes were then incubated with horseradish peroxidase-labeled secondary antibodies (Amersham). Finally, the proteins were visualized on enhanced chemiluminescence film (Hyperfilm, Amersham) by application of Amersham's Enhanced Chemiluminescence Western blotting detection system.
Activation of STAT-3 was also determined by immunofluorescence assay. HUVEC seeded in two-well chamber slides (1×10^4 cells/well) was treated with sMDA-7 (10 ng/ml) for 4 h, washed in PBS, fixed in cold acetic acid and stained for phosphorylated STAT-3 (pSTAT-3) using rabbit anti-human pSTAT-3 antibody (1:1000, Cell Signaling Technology, Beverly, Mass.) and rhodamine labeled anti-rabbit secondary antibody (1:5000; Molecular Probes, Eugene, Oreg.). Slides were mounted using anti-fade mounting reagent (Vector Laboratories). Pictures were taken 1-2 h after staining using a fluorescence microscope.

human PBMC = settings: cited from earlier work
HUVEC cells = assay: Endothelial cell migration assay; type: cell-based, human; settings: VEGF 100 ng/ml
Protocol: Migration assays were performed using HUVEC cells. Cells were starved overnight in basal medium containing 0.5% fetal bovine serum (FBS), collected and re-suspended in the same medium and seeded at a concentration of 1×10^5 cells/well in the upper surface of a 24-well transwell insert with a filter size of 8 μm (Millipore, Cambridge, Mass.). The insert was placed in a 6-well plate that contained medium plus VEGF (100 ng/ml) or VEGF plus MDA-7 (10 ng/ml). The plates containing the transwell were incubated at 37° C. overnight to allow migration. The following day, the wells were disassembled, membranes fixed in crystal violet and the number of cells that had migrated to the lower wells were counted under high power magnification (×40).

B1: sMDA-7: secreted, glycosylated MDA-7 protein purified from supernatant of 293-mda-7 cells (protein)
chain: AQGQEFHFGPCQVKGVVPQKLWEAFWAVKDTMQAQDNITSARLLQQEVLQNVSDAESCYLVHTLLEFYLKTVFKNYHNRTVEVRTLKSFSTLANNFVLIVSQLQPSQENEMFSIRDSAHRRFLLFRRAFKQLDVEAALTKALGEVDILLTWMQKFYKL
- IFN-γ induction (HUVEC): IP-10 but not IFN-γ was induced
- amount of IP-10 produced (HUVEC; various time points): 15 to 32 pg/mL
- concentration giving complete abrogation of tubular formation (HUVEC and HMVEC cells; HUVEC and HMVEC): 10 ng/mL
- inhibition of endothelial tube formation (HUVEC and HMVEC cells; HUVEC and HMVEC, 24 h): significant inhibition of endothelial tube formation
- tubular formation in the presence of IL-10R neutralizing antibody (HUVEC and HMVEC cells; HUVEC, antibody 5 ng, sMDA-7 5 ng): able to inhibit tubular formation
- tube formation (HUVEC and HMVEC cells; HUVEC, sMDA-7 5 ng): complete inhibition of tube formation
- cell death above background levels (tumor cells): 10-15%
- hemoglobin content in the matrigel ([1]; day 10, vs no bFGF, only bFGF, or endostatin): very significant (p=0.0001) inhibitory effect; also recorded: significant reduction in hemoglobin content
- bFGF-induced angiogenesis in matrigel ([1]; sMDA-7 10 ng, 10 days after implantation): inhibition of bFGF-induced angiogenesis
- serum levels of sMDA-7 detected by ELISA (Serum sMDA-7 by ELISA): approximately 50 ng/ml
- pSTAT-3 protein expression (STAT-3; HUVEC and HMVEC, Western blot): significant increase in the phosphorylated form of STAT-3 (pSTAT-3) protein expression as early as 4 h
- nuclear localization of pSTAT-3 (STAT-3; HUVEC, immunofluorescence): increased nuclear localization of pSTAT-3 protein
- time of maximal pSTAT-3 expression (STAT-3; after treatment): 24 h
- cytokine induction (human PBMC): causes the induction of IFN-γ, IL-6 and TNF-α
- amount giving complete inhibition of migration (HUVEC cells; MDA-7): 50 ng
- endothelial cell migration induced by VEGF (HUVEC cells; sMDA-7 10 ng/ml): blocked endothelial cell migration
